Experiment [1] deals with T1, human interleukin 12 (p70 heterodimer of p35 and p40) (human, UniProt P29459 23-219; P29460 23-328).
T1 construct: Recombinant human IL-12; also called hIL-12; IL-12
T1 sequence (looked up) 1: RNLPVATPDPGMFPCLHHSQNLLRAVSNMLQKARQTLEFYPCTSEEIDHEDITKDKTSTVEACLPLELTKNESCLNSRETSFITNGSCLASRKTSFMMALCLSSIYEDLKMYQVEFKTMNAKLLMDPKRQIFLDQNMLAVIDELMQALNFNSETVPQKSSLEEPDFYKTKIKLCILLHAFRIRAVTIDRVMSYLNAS
T1 sequence (looked up) 2: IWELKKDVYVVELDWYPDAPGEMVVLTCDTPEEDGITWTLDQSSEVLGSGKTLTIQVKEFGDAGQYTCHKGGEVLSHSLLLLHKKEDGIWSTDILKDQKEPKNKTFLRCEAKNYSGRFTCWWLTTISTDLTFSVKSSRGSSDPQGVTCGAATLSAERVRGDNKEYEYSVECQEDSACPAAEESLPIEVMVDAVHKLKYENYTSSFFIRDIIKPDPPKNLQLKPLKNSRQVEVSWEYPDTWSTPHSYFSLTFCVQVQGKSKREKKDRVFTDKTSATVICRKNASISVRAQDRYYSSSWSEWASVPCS
Nature of the experiment: SPR (BIAcore), off-rate.

In experiment [2] the target is T1, human interleukin 12 (p70 heterodimer …). The experiment in a line: SPR (BIAcore), off-rate. The source holds these as a separate data set.

Where two headings read alike, the source gives them in different places.

B1: SEQ ID NO: 491 (Y61, D at L32) (antibody, V domains shown)
VH: QVQLVQSGGGVVQPGRSLRLSCAASGFTFSSYGMHWVRQAPGKGLEWVAFIRYDGSNKYYADSVKGRFTISRDNSKNTLYLQMKSLRAEDTAVYYCKTHGSHDNWGQGTMVTVSS
VL: SYVLTQPPSVSGTPGQRVTISCSGGRSNIGSNDVKWYQQLPGTAPKLLIYGNDQRPSGVPDRFSGSKSGTSASLAITGVQAEDEADYYCQSYDRGTHPALLFGTGTKVTVLG
B1 had a koff in experiment [1] of 0.000252 s⁻¹.

B2: SEQ ID NO: 503 (Y61, L at L32) (antibody, V domains shown)
VH: QVQLVQSGGGVVQPGRSLRLSCAASGFTFSSYGMHWVRQAPGKGLEWVAFIRYDGSNKYYADSVKGRFTISRDNSKNTLYLQMKSLRAEDTAVYYCKTHGSHDNWGQGTMVTVSS
VL: SYVLTQPPSVSGTPGQRVTISCSGGRSNIGSNLVKWYQQLPGTAPKLLIYGNDQRPSGVPDRFSGSKSGTSASLAITGVQAEDEADYYCQSYDRGTHPALLFGTGTKVTVLG
In experiment [1], B2 gave a koff of 0.00215 s⁻¹. Against the preceding molecule, the koff is about 8.5-fold higher.

B3: SEQ ID NO: 505 (Y61, P at L32) (antibody, V domains shown)
VH: QVQLVQSGGGVVQPGRSLRLSCAASGFTFSSYGMHWVRQAPGKGLEWVAFIRYDGSNKYYADSVKGRFTISRDNSKNTLYLQMKSLRAEDTAVYYCKTHGSHDNWGQGTMVTVSS
VL: SYVLTQPPSVSGTPGQRVTISCSGGRSNIGSNPVKWYQQLPGTAPKLLIYGNDQRPSGVPDRFSGSKSGTSASLAITGVQAEDEADYYCQSYDRGTHPALLFGTGTKVTVLG
For B3, the koff in experiment [1] turned out to be 0.000424 s⁻¹.

B4: SEQ ID NO: 498 (Y61, N at L32) (antibody, V domains shown)
VH: QVQLVQSGGGVVQPGRSLRLSCAASGFTFSSYGMHWVRQAPGKGLEWVAFIRYDGSNKYYADSVKGRFTISRDNSKNTLYLQMKSLRAEDTAVYYCKTHGSHDNWGQGTMVTVSS
VL: SYVLTQPPSVSGTPGQRVTISCSGGRSNIGSNNVKWYQQLPGTAPKLLIYGNDQRPSGVPDRFSGSKSGTSASLAITGVQAEDEADYYCQSYDRGTHPALLFGTGTKVTVLG
As to B4, in experiment [1], the koff came to 0.00197 s⁻¹.

B5: SEQ ID NO: 506 (Y61, D at L50) (antibody, V domains shown)
VH: QVQLVQSGGGVVQPGRSLRLSCAASGFTFSSYGMHWVRQAPGKGLEWVAFIRYDGSNKYYADSVKGRFTISRDNSKNTLYLQMKSLRAEDTAVYYCKTHGSHDNWGQGTMVTVSS
VL: SYVLTQPPSVSGTPGQRVTISCSGGRSNIGSNTVKWYQQLPGTAPKLLIYDNDQRPSGVPDRFSGSKSGTSASLAITGVQAEDEADYYCQSYDRGTHPALLFGTGTKVTVLG
As for B5, in experiment [2], the off-rate (koff) stood at 0.000348 s⁻¹.

B6: SEQ ID NO: 492 (Y61, C at L32) (antibody, V domains shown)
VH: QVQLVQSGGGVVQPGRSLRLSCAASGFTFSSYGMHWVRQAPGKGLEWVAFIRYDGSNKYYADSVKGRFTISRDNSKNTLYLQMKSLRAEDTAVYYCKTHGSHDNWGQGTMVTVSS
VL: SYVLTQPPSVSGTPGQRVTISCSGGRSNIGSNCVKWYQQLPGTAPKLLIYGNDQRPSGVPDRFSGSKSGTSASLAITGVQAEDEADYYCQSYDRGTHPALLFGTGTKVTVLG
In the case of B6, the koff in experiment [1] is 0.00381 s⁻¹.

B7: SEQ ID NO: 502 (Y61, V at L32) (antibody, V domains shown)
VH: QVQLVQSGGGVVQPGRSLRLSCAASGFTFSSYGMHWVRQAPGKGLEWVAFIRYDGSNKYYADSVKGRFTISRDNSKNTLYLQMKSLRAEDTAVYYCKTHGSHDNWGQGTMVTVSS
VL: SYVLTQPPSVSGTPGQRVTISCSGGRSNIGSNVVKWYQQLPGTAPKLLIYGNDQRPSGVPDRFSGSKSGTSASLAITGVQAEDEADYYCQSYDRGTHPALLFGTGTKVTVLG
Turning to B7, the koff in experiment [1] was 0.00164 s⁻¹.

B8: SEQ ID NO: 501 (Y61, A at L32) (antibody, V domains shown)
VH: QVQLVQSGGGVVQPGRSLRLSCAASGFTFSSYGMHWVRQAPGKGLEWVAFIRYDGSNKYYADSVKGRFTISRDNSKNTLYLQMKSLRAEDTAVYYCKTHGSHDNWGQGTMVTVSS
VL: SYVLTQPPSVSGTPGQRVTISCSGGRSNIGSNAVKWYQQLPGTAPKLLIYGNDQRPSGVPDRFSGSKSGTSASLAITGVQAEDEADYYCQSYDRGTHPALLFGTGTKVTVLG
Take B8: the koff in experiment [1] worked out at 0.00191 s⁻¹.

B9: SEQ ID NO: 499 (Y61, Q at L32) (antibody, V domains shown)
VH: QVQLVQSGGGVVQPGRSLRLSCAASGFTFSSYGMHWVRQAPGKGLEWVAFIRYDGSNKYYADSVKGRFTISRDNSKNTLYLQMKSLRAEDTAVYYCKTHGSHDNWGQGTMVTVSS
VL: SYVLTQPPSVSGTPGQRVTISCSGGRSNIGSNQVKWYQQLPGTAPKLLIYGNDQRPSGVPDRFSGSKSGTSASLAITGVQAEDEADYYCQSYDRGTHPALLFGTGTKVTVLG
B9 returned a koff in experiment [1] of 0.00247 s⁻¹. This koff and that of the molecule before are within 1.5-fold of each other.

B10: SEQ ID NO: 507 (Y61, E at L50) (antibody, V domains shown)
VH: QVQLVQSGGGVVQPGRSLRLSCAASGFTFSSYGMHWVRQAPGKGLEWVAFIRYDGSNKYYADSVKGRFTISRDNSKNTLYLQMKSLRAEDTAVYYCKTHGSHDNWGQGTMVTVSS
VL: SYVLTQPPSVSGTPGQRVTISCSGGRSNIGSNTVKWYQQLPGTAPKLLIYENDQRPSGVPDRFSGSKSGTSASLAITGVQAEDEADYYCQSYDRGTHPALLFGTGTKVTVLG
The molecule B10 came in with a koff in experiment [2] of 0.000617 s⁻¹.

B11: SEQ ID NO: 496 (Y61, K at L32) (antibody, V domains shown)
VH: QVQLVQSGGGVVQPGRSLRLSCAASGFTFSSYGMHWVRQAPGKGLEWVAFIRYDGSNKYYADSVKGRFTISRDNSKNTLYLQMKSLRAEDTAVYYCKTHGSHDNWGQGTMVTVSS
VL: SYVLTQPPSVSGTPGQRVTISCSGGRSNIGSNKVKWYQQLPGTAPKLLIYGNDQRPSGVPDRFSGSKSGTSASLAITGVQAEDEADYYCQSYDRGTHPALLFGTGTKVTVLG
In experiment [1], B11 displayed a koff of 0.000318 s⁻¹.

B12: SEQ ID NO: 494 (Y61, Y at L32) (antibody, V domains shown)
VH: QVQLVQSGGGVVQPGRSLRLSCAASGFTFSSYGMHWVRQAPGKGLEWVAFIRYDGSNKYYADSVKGRFTISRDNSKNTLYLQMKSLRAEDTAVYYCKTHGSHDNWGQGTMVTVSS
VL: SYVLTQPPSVSGTPGQRVTISCSGGRSNIGSNYVKWYQQLPGTAPKLLIYGNDQRPSGVPDRFSGSKSGTSASLAITGVQAEDEADYYCQSYDRGTHPALLFGTGTKVTVLG
In turn, B12 returned a koff in experiment [1] of 0.000213 s⁻¹. This koff and that of the molecule before are within 1.5-fold of each other.

B13: SEQ ID NO: 495 (Y61, H at L32) (antibody, V domains shown)
VH: QVQLVQSGGGVVQPGRSLRLSCAASGFTFSSYGMHWVRQAPGKGLEWVAFIRYDGSNKYYADSVKGRFTISRDNSKNTLYLQMKSLRAEDTAVYYCKTHGSHDNWGQGTMVTVSS
VL: SYVLTQPPSVSGTPGQRVTISCSGGRSNIGSNHVKWYQQLPGTAPKLLIYGNDQRPSGVPDRFSGSKSGTSASLAITGVQAEDEADYYCQSYDRGTHPALLFGTGTKVTVLG
In experiment [1], B13 registered a koff of 0.00026 s⁻¹.

B14: SEQ ID NO: 509 (Y61, S at L50) (antibody, V domains shown)
VH: QVQLVQSGGGVVQPGRSLRLSCAASGFTFSSYGMHWVRQAPGKGLEWVAFIRYDGSNKYYADSVKGRFTISRDNSKNTLYLQMKSLRAEDTAVYYCKTHGSHDNWGQGTMVTVSS
VL: SYVLTQPPSVSGTPGQRVTISCSGGRSNIGSNTVKWYQQLPGTAPKLLIYSNDQRPSGVPDRFSGSKSGTSASLAITGVQAEDEADYYCQSYDRGTHPALLFGTGTKVTVLG
B14 returned a koff in experiment [2] of 0.000286 s⁻¹.

B15: SEQ ID NO: 511 (Y61, H at L50) (antibody, V domains shown)
VH: QVQLVQSGGGVVQPGRSLRLSCAASGFTFSSYGMHWVRQAPGKGLEWVAFIRYDGSNKYYADSVKGRFTISRDNSKNTLYLQMKSLRAEDTAVYYCKTHGSHDNWGQGTMVTVSS
VL: SYVLTQPPSVSGTPGQRVTISCSGGRSNIGSNTVKWYQQLPGTAPKLLIYHNDQRPSGVPDRFSGSKSGTSASLAITGVQAEDEADYYCQSYDRGTHPALLFGTGTKVTVLG
In turn, B15 yielded a koff in experiment [2] of 0.000761 s⁻¹.

B16: SEQ ID NO: 497 (Y61, R at L32) (antibody, V domains shown)
VH: QVQLVQSGGGVVQPGRSLRLSCAASGFTFSSYGMHWVRQAPGKGLEWVAFIRYDGSNKYYADSVKGRFTISRDNSKNTLYLQMKSLRAEDTAVYYCKTHGSHDNWGQGTMVTVSS
VL: SYVLTQPPSVSGTPGQRVTISCSGGRSNIGSNRVKWYQQLPGTAPKLLIYGNDQRPSGVPDRFSGSKSGTSASLAITGVQAEDEADYYCQSYDRGTHPALLFGTGTKVTVLG
On to B16, for which, in experiment [1], the koff was determined as 0.0069 s⁻¹.

B17: SEQ ID NO: 493 (Y61, S at L32) (antibody, V domains shown)
VH: QVQLVQSGGGVVQPGRSLRLSCAASGFTFSSYGMHWVRQAPGKGLEWVAFIRYDGSNKYYADSVKGRFTISRDNSKNTLYLQMKSLRAEDTAVYYCKTHGSHDNWGQGTMVTVSS
VL: SYVLTQPPSVSGTPGQRVTISCSGGRSNIGSNSVKWYQQLPGTAPKLLIYGNDQRPSGVPDRFSGSKSGTSASLAITGVQAEDEADYYCQSYDRGTHPALLFGTGTKVTVLG
As to B17, in experiment [1], the koff is 0.00191 s⁻¹. Against the preceding molecule, the koff is about 3.6-fold lower.

B18: SEQ ID NO: 508 (Y61, C at L50) (antibody, V domains shown)
VH: QVQLVQSGGGVVQPGRSLRLSCAASGFTFSSYGMHWVRQAPGKGLEWVAFIRYDGSNKYYADSVKGRFTISRDNSKNTLYLQMKSLRAEDTAVYYCKTHGSHDNWGQGTMVTVSS
VL: SYVLTQPPSVSGTPGQRVTISCSGGRSNIGSNTVKWYQQLPGTAPKLLIYCNDQRPSGVPDRFSGSKSGTSASLAITGVQAEDEADYYCQSYDRGTHPALLFGTGTKVTVLG
Take B18: in experiment [2], the koff is 0.000467 s⁻¹.

B19: SEQ ID NO: 504 (Y61, I at L32) (antibody, V domains shown)
VH: QVQLVQSGGGVVQPGRSLRLSCAASGFTFSSYGMHWVRQAPGKGLEWVAFIRYDGSNKYYADSVKGRFTISRDNSKNTLYLQMKSLRAEDTAVYYCKTHGSHDNWGQGTMVTVSS
VL: SYVLTQPPSVSGTPGQRVTISCSGGRSNIGSNIVKWYQQLPGTAPKLLIYGNDQRPSGVPDRFSGSKSGTSASLAITGVQAEDEADYYCQSYDRGTHPALLFGTGTKVTVLG
Take B19: in experiment [1], the koff amounted to 0.00154 s⁻¹.

(Values after patent US20120219562A1 (AbbVie / Abbott, published 2012).)
